Test results from US20170334951A1 (Memorial Sloan Kettering, published 2017).

Tests used:
Assay in all cases: cell-based or functional assay
[1] = biological target: HLA-A0201 (human)
[2] = biological target: HLA-B3501 (human)
[3] = biological target: HLA-A0101 (human)
[4] = biological target: HLA-DRB10101 (human)
[5] = biological target: HLA-DRB10402 (human)
[6] = biological target: HLA-B3801 (human)
[7] = biological target: HLA-DRB10401 (human)
[8] = biological target: HLA-B4001 (human)
[9] = biological target: HLA-A2402 (human)
[10] = biological target: HLA-B5701 (human)
[11] = biological target: HLA-A6901 (human)
[12] = biological target: HLA-B0702 (human)
[13] = biological target: HLA-B4402 (human)
[14] = biological target: HLA-B3503 (human)
[15] = biological target: HLA-DRB11104 (human)
[16] = biological target: HLA-B3901 (human)
[17] = biological target: HLA-B4701 (human)
[18] = biological target: HLA-C0401 (human)
[19] = biological target: HLA-B3508 (human)
[20] = biological target: HLA-C1701 (human)
[21] = biological target: HLA-A3101 (human)
[22] = biological target: HLA-A0203 (human)
[23] = biological target: HLA-B3802 (human)

Binder: PLPHFPPSL [WT1 (-110)-(-102) PLPHFPPSL]
- Cytotoxic CTL response, % (at 50:1) E:T ratio vs WT1+ allo APC with restricting HLA allele loaded with WT1 peptide [1]: 24%

Binder: GYESDNHTT [WT1 269-278 GYESDNHTT]
- Cytotoxic CTL response, % (at 50:1) E:T ratio vs WT1+ allo APC with restricting HLA allele loaded with WT1 peptide [2]: 23%
- Cytotoxic CTL response, % (at 50:1) E:T ratio vs WT1+ allo APC with restricting HLA allele loaded with WT1 peptide [3]: 26%

Binder: NLYQMTSQLE [WT1 225-233 NLYQMTSQLE]
- Cytotoxic CTL response, % (at 50:1) E:T ratio vs WT1+ allo APC with restricting HLA allele loaded with WT1 peptide [1]: 28%

Binder: KLGAAEASA [WT1 (-27)-(-19) KLGAAEASA]
- Cytotoxic CTL response, % (at 50:1) E:T ratio vs WT1+ allo APC with restricting HLA allele loaded with WT1 peptide [1]: 22%

Binder: PGCLQQPEQQG [WT1 (-47)-(-37) PGCLQQPEQQG]
- Cytotoxic CTL response, % (at 50:1) E:T ratio vs WT1+ allo APC with restricting HLA allele loaded with WT1 peptide [4]: 25%

Binder: CMTWNQMNLGATLKG [WT1 235-249 CMTWNQMNLGATLKG]
- Cytotoxic CTL response, % (at 50:1) E:T ratio vs WT1+ allo APC with restricting HLA allele loaded with WT1 peptide [5]: 15%

Binder: NQGYSTVTF [WT1 146-154 NQGYSTVTF]
- Cytotoxic CTL response, % (at 50:1) E:T ratio vs WT1+ allo APC with restricting HLA allele loaded with WT1 peptide [3]: 15%

Binder: HHAAQFPNH [WT1 166-174 HHAAQFPNH]
- Cytotoxic CTL response, % (at 50:1) E:T ratio vs WT1+ allo APC with restricting HLA allele loaded with WT1 peptide [6]: 17%

Binder: KRPFMCAYPGC [WT1 320-334 KRPFMCAYPGC]
- Cytotoxic CTL response, % (at 50:1) E:T ratio vs WT1+ allo APC with restricting HLA allele loaded with WT1 peptide [7]: 0%

Binder: AILDFLLLQ [WT1 (-75)-(-67) AILDFLLLQ]
- Cytotoxic CTL response, % (at 50:1) E:T ratio vs WT1+ allo APC with restricting HLA allele loaded with WT1 peptide [1]: 17%

Binder: LDFAPPGASAY [WT1 38-48 LDFAPPGASAY]
- Cytotoxic CTL response, % (at 50:1) E:T ratio vs WT1+ allo APC with restricting HLA allele loaded with WT1 peptide [5]: 71%

Binder: NMHQRNHTKL [WT1 436-445 NMHQRNHTKL]
- Cytotoxic CTL response, % (at 50:1) E:T ratio vs WT1+ allo APC with restricting HLA allele loaded with WT1 peptide [1]: 32%
- Cytotoxic CTL response, % (at 50:1) E:T ratio vs WT1+ allo APC with restricting HLA allele loaded with WT1 peptide [8]: 26%
- Cytotoxic CTL response, % (at 50:1) E:T ratio vs WT1+ allo APC with restricting HLA allele loaded with WT1 peptide [9]: 27%

Binder: NQMNLGATL [WT1 239-248 NQMNLGATL]
- Cytotoxic CTL response, % (at 50:1) E:T ratio vs WT1+ allo APC with restricting HLA allele loaded with WT1 peptide [9]: 2%

Binder: RDLNALLPAV [WT1 6-15 RDLNALLPAV]
- Cytotoxic CTL response, % (at 50:1) E:T ratio vs WT1+ allo APC with restricting HLA allele loaded with WT1 peptide [1]: 31%
- Cytotoxic CTL response, % (at 50:1) E:T ratio vs WT1+ allo APC with restricting HLA allele loaded with WT1 peptide [10]: 22%

Binder: TLGVAAGS [WT1 246-253 TLGVAAGS]
- Cytotoxic CTL response, % (at 50:1) E:T ratio vs WT1+ allo APC with restricting HLA allele loaded with WT1 peptide [11]: 57%

Binder: ASGSEPQQM [WT1 (-8)-(1) ASGSEPQQM]
- Cytotoxic CTL response, % (at 50:1) E:T ratio vs WT1+ allo APC with restricting HLA allele loaded with WT1 peptide [2]: 51%

Binder: HSFKHEDPM [WT1 174-182 HSFKHEDPM]
- Cytotoxic CTL response, % (at 50:1) E:T ratio vs WT1+ allo APC with restricting HLA allele loaded with WT1 peptide [2]: 63%

Binder: GALRNPTAC [WT1 (-119)-(-111) GALRNPTAC]
- Cytotoxic CTL response, % (at 50:1) E:T ratio vs WT1+ allo APC with restricting HLA allele loaded with WT1 peptide [12]: 22%

Binder: RKFSRSDHL [WT1 390-398 RKFSRSDHL]
- Cytotoxic CTL response, % (at 50:1) E:T ratio vs WT1+ allo APC with restricting HLA allele loaded with WT1 peptide [1]: 27%

Binder: CHTPTDSCT [WT1 202-210 CHTPTDSCT]
- Cytotoxic CTL response, % (at 50:1) E:T ratio vs WT1+ allo APC with restricting HLA allele loaded with WT1 peptide [13]: 19%

Binder: LDFAPPGAS [WT1 38-46 LDFAPPGAS]
- Cytotoxic CTL response, % (at 50:1) E:T ratio vs WT1+ allo APC with restricting HLA allele loaded with WT1 peptide [1]: 62%

Binder: THSPTHPPR [WT1 (-99)-(-91) THSPTHPPR]
- Cytotoxic CTL response, % (at 50:1) E:T ratio vs WT1+ allo APC with restricting HLA allele loaded with WT1 peptide [1]: 21%
- Cytotoxic CTL response, % (at 50:1) E:T ratio vs WT1+ allo APC with restricting HLA allele loaded with WT1 peptide [8]: 31%

Binder: RTPYSSDNL [WT1 218-226 RTPYSSDNL]
- Cytotoxic CTL response, % (at 50:1) E:T ratio vs WT1+ allo APC with restricting HLA allele loaded with WT1 peptide [14]: 31%

Binder: LKTHTTRTHT [WT1 398-406 …]
- Cytotoxic CTL response, % (at 50:1) E:T ratio vs WT1+ allo APC with restricting HLA allele loaded with WT1 peptide [1]: 22%

Binder: PSCLESQPA [WT1 135-143 PSCLESQPA]
- Cytotoxic CTL response, % (at 50:1) E:T ratio vs WT1+ allo APC with restricting HLA allele loaded with WT1 peptide [2]: 21%

Binder: SAYGSLGGP [WT1 46-54 SAYGSLGGP]
- Cytotoxic CTL response, % (at 50:1) E:T ratio vs WT1+ allo APC with restricting HLA allele loaded with WT1 peptide [1]: 31%
- Cytotoxic CTL response, % (at 50:1) E:T ratio vs WT1+ allo APC with restricting HLA allele loaded with WT1 peptide [8]: 24%

Binder: WNQMNLGATLK [WT1 238-248 WNQMNLGATLK]
- Cytotoxic CTL response, % (at 50:1) E:T ratio vs WT1+ allo APC with restricting HLA allele loaded with WT1 peptide [15]: 1%

Binder: GGCALPVSGA [WT1 22-31 GGCALPVSGA]
- Cytotoxic CTL response, % (at 50:1) E:T ratio vs WT1+ allo APC with restricting HLA allele loaded with WT1 peptide [1]: 25%

Binder: GAAQWAPVL [WT1 30-38 GAAQWAPVL]
- Cytotoxic CTL response, % (at 50:1) E:T ratio vs WT1+ allo APC with restricting HLA allele loaded with WT1 peptide [16]: 19%

Binder: PGCLQQPEQ [WT1 (-47)-(-39) PGCLQQPEQ]
- Cytotoxic CTL response, % (at 50:1) E:T ratio vs WT1+ allo APC with restricting HLA allele loaded with WT1 peptide [1]: 27%
- Cytotoxic CTL response, % (at 50:1) E:T ratio vs WT1+ allo APC with restricting HLA allele loaded with WT1 peptide [17]: 25%

Binder: NLGATLKGV [WT1 242-250 NLGATLKGV]
- Cytotoxic CTL response, % (at 50:1) E:T ratio vs WT1+ allo APC with restricting HLA allele loaded with WT1 peptide [1]: 14%
- Cytotoxic CTL response, % (at 50:1) E:T ratio vs WT1+ allo APC with restricting HLA allele loaded with WT1 peptide [3]: 17%

Binder: SGQARMFPN [WT1 122-130 SGQARMFPN]
- Cytotoxic CTL response, % (at 50:1) E:T ratio vs WT1+ allo APC with restricting HLA allele loaded with WT1 peptide [18]: 41%
- Cytotoxic CTL response, % (at 50:1) E:T ratio vs WT1+ allo APC with restricting HLA allele loaded with WT1 peptide [14]: 41%

Binder: ACRYGPFGP [WT1 106-114 ACRYGPFGP]
- Cytotoxic CTL response, % (at 50:1) E:T ratio vs WT1+ allo APC with restricting HLA allele loaded with WT1 peptide [13]: 23%

Binder: CTGSQALLL [WT1 209-217 CTGSQALLL]
- Cytotoxic CTL response, % (at 50:1) E:T ratio vs WT1+ allo APC with restricting HLA allele loaded with WT1 peptide [3]: 26%

Binder: WNQMNLGAT [WT1 238-246 WNQMNLGAT]
- Cytotoxic CTL response, % (at 50:1) E:T ratio vs WT1+ allo APC with restricting HLA allele loaded with WT1 peptide [19]: 21%
- Cytotoxic CTL response, % (at 50:1) E:T ratio vs WT1+ allo APC with restricting HLA allele loaded with WT1 peptide [1]: 21%
- Cytotoxic CTL response, % (at 50:1) E:T ratio vs WT1+ allo APC with restricting HLA allele loaded with WT1 peptide [20]: 7%
- Cytotoxic CTL response, % (at 50:1) E:T ratio vs WT1+ allo APC with restricting HLA allele loaded with WT1 peptide [3]: 19%

Binder: FMCAYPGCNK [WT1 323-332 FMCAYPGCNK]
- Cytotoxic CTL response, % (at 50:1) E:T ratio vs WT1+ allo APC with restricting HLA allele loaded with WT1 peptide [2]: 61%
- Cytotoxic CTL response, % (at 50:1) E:T ratio vs WT1+ allo APC with restricting HLA allele loaded with WT1 peptide [3]: 0%

Binder: HFPPSLPPT [WT1 (-107)-(-99) HFPPSLPPT]
- Cytotoxic CTL response, % (at 50:1) E:T ratio vs WT1+ allo APC with restricting HLA allele loaded with WT1 peptide [21]: 27%

Binder: LGATLKGVAA [WT1 243-252 LGATLKGVAA]
- Cytotoxic CTL response, % (at 50:1) E:T ratio vs WT1+ allo APC with restricting HLA allele loaded with WT1 peptide [22]: 21%

Binder: TDSCTGSQA [WT1 206-214 TDSCTGSQA]
- Cytotoxic CTL response, % (at 50:1) E:T ratio vs WT1+ allo APC with restricting HLA allele loaded with WT1 peptide [13]: 88%
- Cytotoxic CTL response, % (at 50:1) E:T ratio vs WT1+ allo APC with restricting HLA allele loaded with WT1 peptide [23]: 53%

Binder: PAPPPPPPP [WT1 58-66 PAPPPPPPP]
- Cytotoxic CTL response, % (at 50:1) E:T ratio vs WT1+ allo APC with restricting HLA allele loaded with WT1 peptide [1]: 18%

Binder: RQRPHPGAL [WT1 (-125)-(-117) RQRPHPGAL]
- Cytotoxic CTL response, % (at 50:1) E:T ratio vs WT1+ allo APC with restricting HLA allele loaded with WT1 peptide [12]: 53%
